Test results published in patent publication US20200330603A1, “PEPTIDES FOR RENAL THERAPY” (FRED HUTCHINSON CANCER RESEARCH CENTER, priority 2015, published 2020).
Ends that are not written are not given here.

Tests used:
[1] = Confocal imaging of kidneys 30 minutes after administration; type: in vivo, mice; conditions: 10 nmol
Description: Kidneys were isolated, sectioned, and imaged using a Zeiss confocal microscopy.

[2] = Competitive renal uptake studies, fluorescence imaging of whole organs; type: in vivo, mice; conditions: 10 nmol iv, 4 hours, p-value of 0.015
Description: This example describes competitive uptake studies of peptides of this disclosure in kidneys. Peptides of this disclosure were compared to known kidney homers (“competitors”) to assess the efficiency and strength of kidney targeting. Three competitors were tested against a peptide of SEQ ID NO: 4, and kidney uptake was quantified by fluorescence imaging of whole organs on a Spectrum IVIS imager.
Kidneys from uninjected mice were used as a negative control. Fluorescence signal in each group was quantified to determine the average radiant efficiency in the kidneys from three mice per cohort. Data are shown as mean and error bars indicate standard deviation. A p-value of 0.0081 was calculated by a T-test, and the error bars indicate standard deviation. In this experiment, the unlabeled SEQ ID NO: 4 peptide competed with the SEQ ID NO: 4-AF647 as shown by decreased fluorescence and thus, decreased accumulation of the dye labeled peptide in the kidney. […] Fluorescence signal in each group was quantified to determine the average radiant efficiency in the kidneys from three mice per cohort. Data are shown as mean and error bars indicate standard deviation. Kidney uptake of a peptide of SEQ ID NO: 4-AF647 was not dampened by SEQ ID NO: 121 peptide even at the highest ratio of competitor. […] Fluorescence signal in each group was quantified to determine the average radiant efficiency in the kidneys from three mice per cohort. Data are shown as mean and error bars indicate standard deviation. A p-value of 0.015 was calculated by a Student's unpaired t-test.

For “SEQ ID NO: 4-AF647: SEQ ID NO: 4 conjugated to AF647 (GSSCEPGRTFRDRCNTCRCGADGRSAACTLRACPNQ; not fully specified; cysteine pairing not given here)”, the “accumulation of dye in the kidney proximal tubules (FIG. 13)” value [1] was “can deliver and accumulate dye when attached as a conjugate in the kidney proximal tubules” and the “renal uptake compared with control peptide-AF647 (FIG. 12)” value [2] was “significantly higher extent than the control peptide”.
